Assay results as given in publication PMC11125907, “A Portable Readout System for Biomarker Detection with Aptamer-Modified CMOS ISFET Array”.

Target: cardiac troponin I (cTnI) (human, UniProt P19429 2-210)
Experiment: ISFET aptasensor; 1 mM Mg2+; AC mode 2.4 V, 10 kHz 0.1 Vp-p; LoD 3.27 ng/mL, linear range 3.27-625 ng/mL (no Kd); 10 mM Tris-HCl pH 7.7, 8 mM NaCl, 1 mM MgCl2; temperature not stated
Conditions: protein: recombinant

Chain of cardiac troponin I (cTnI) (P19429 2-210): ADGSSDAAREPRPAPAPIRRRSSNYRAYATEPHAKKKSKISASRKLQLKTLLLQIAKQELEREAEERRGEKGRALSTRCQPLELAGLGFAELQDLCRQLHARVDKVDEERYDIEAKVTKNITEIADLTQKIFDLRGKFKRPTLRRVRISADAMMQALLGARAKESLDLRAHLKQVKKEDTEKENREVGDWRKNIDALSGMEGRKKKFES

CGCATGCCAAACGTTGCCTCATAGTTCCCTCCCCGTGTCC (ssDNA, 5'-SH (thiol)) [Tro6]: binds.
